Source: US20010029293A1

Molecular target: CD18-independent counterreceptor for ICAM-R on Jurkat cells
Assay: cell adhesion to coated shICAM-R, peptide 1-2 mg/ml

Binder	% Inhibition CD18-Independent Binding (Jurkat)
NGSQI [ICAM-R peptide 72-76 (NGSQI)]	17%
GDQRL [ICAM-1 peptide 228-232 (GDQRL)]	22%
GERREA [ICAM-R peptide 271-276]	11%
EKIALET [ICAM-R peptide 32-38]	10%
DGQST [ICAM-1 peptide 70-74 (DGQST)]	9%
GDQML [ICAM-R peptide 230-234 (GDQML)]	36%
